To fix the notation:
B1: LINE1-full (parent)
chain: UACGUAGGUGGUUUUCCCCUGAUAGUGCUAAGGGGGCCUGGAAGUUUGGACUGGGCAGAGCUCAACACAGCGUGGCAAAGUGGCUGUGGCUAGACUGCCUCUCUGGAUUCCUCGUCACUCAGCAGGGCAUCUCUGAGAGAAAUGCC

167 variants from the RNAGym collection of RNA variant scans (doi:10.7554/elife.90254) can be followed below.

In the data set the parent is B1. The experiment in a line: self-cleavage, relative activity (ratio to wild type); higher = more cleavage; in vitro, sequencing; the parent is a self-cleaving ribozyme.
U85C A141G: the self-cleavage stood at 0.16.

On to G88U A142G, for which the self-cleavage was 0.

U87C C120U: the self-cleavage was found to be 0.13.

For U87C U96C, the self-cleavage came to 0.27.

For the variant U91A A94G, the self-cleavage was 0.09.

Turning to G88A U119A, the self-cleavage stood at 0.06.

Regarding U85G U108C, the self-cleavage was 0.22.

On to C90U U108A, for which the self-cleavage stood at 0.05.

C90U U108C: the self-cleavage is 0.03.

Consider G88A G97A, for which the self-cleavage stood at 0.04.

For C90U A124U, the self-cleavage worked out at 0.02.

As to C90U A124G, the self-cleavage is 0.02.

With C90G A92G, the self-cleavage amounted to 0.03.

In the case of U85C C113U, the self-cleavage is 0.1.

In the case of U85C C113A, the self-cleavage was 0.08.

As for U87G U115C, the self-cleavage stood at 0.03.

As for U87A C123U, the self-cleavage turned out to be 0.06.

Take C90U A136G: the self-cleavage turned out to be 0.05.

With U91C U109A, the self-cleavage stood at 0.48.

As to G88A U102C, the self-cleavage came to 0.06.

As for G88A U102A, the self-cleavage stood at 0.04.

As to U91A U100A, the self-cleavage was 0.56.

Consider G86U G105A, for which the self-cleavage is 0.06.

In the case of G89C A140U, the self-cleavage amounted to 0.05.

On to A92C U132C, for which the self-cleavage came out at 0.

Turning to G88A G135A, the self-cleavage came out at 0.08.

In the case of U91C C133A, the self-cleavage worked out at 0.74.

As for G89A U108C, the self-cleavage turned out to be 0.04.

In the case of U85C C101A, the self-cleavage amounted to 0.12.

C90U U134C: the self-cleavage was found to be 0.04.

Regarding C90U U104C, the self-cleavage was found to be 0.04.

In the case of U87A U115C, the self-cleavage was 0.09.

With U87A U115A, the self-cleavage amounted to 0.1.

With U87A A94U, the self-cleavage was determined as 0.04.

With A92G A136G, the self-cleavage was 0.08.

A92G A136U: the self-cleavage worked out at 0.05.

U87C U104A: the self-cleavage was determined as 0.09.

Consider U87C U104C, for which the self-cleavage was found to be 0.22.

Take U87A U132C: the self-cleavage was determined as 0.07.

Turning to U87A U132A, the self-cleavage was found to be 0.07.

On to U87A U132G, for which the self-cleavage was found to be 0.1.

Consider U87C C118U, for which the self-cleavage is 0.22.

As for U87C A142C, the self-cleavage is 0.24.

For U87C A142U, the self-cleavage came to 0.09.

Consider C90G U109C, for which the self-cleavage turned out to be 0.07.

Take U87A U134C: the self-cleavage was 0.1.

Consider U87A U143C, for which the self-cleavage is 0.11.

For the variant U91C C99A, the self-cleavage came out at 0.11.

Turning to G88A U96A, the self-cleavage was 0.03.

For C90U A117G, the self-cleavage stood at 0.06.

U91C A124G: the self-cleavage was 0.33.

Turning to U91C A124U, the self-cleavage turned out to be 0.

For U91G C111U, the self-cleavage came out at 0.02.

U85G U112A: the self-cleavage stood at 0.26.

On to A92G A94G, for which the self-cleavage stood at 0.12.

For the variant U91C A129G, the self-cleavage was 0.47.

Regarding G86A A129G, the self-cleavage was 0.05.

Turning to G88A A124G, the self-cleavage turned out to be 0.06.

For the variant U91G A138G, the self-cleavage amounted to 0.

Regarding U91C C95A, the self-cleavage was found to be 0.08.

With G86A G126U, the self-cleavage was determined as 0.02.

On to G86A A136G, for which the self-cleavage was 0.09.

As for G86A A136U, the self-cleavage amounted to 0.06.

For the variant U85C A129G, the self-cleavage is 0.16.

As for U85C A129U, the self-cleavage was 0.19.

U85C A92G: the self-cleavage was 0.28.

Turning to U85A G88A, the self-cleavage worked out at 0.23.

On to U91C G127A, for which the self-cleavage is 0.53.

With G89A U130C, the self-cleavage stood at 0.02.

For the variant A92C G93U, the self-cleavage was determined as 0.06.

For the variant G88A U112A, the self-cleavage amounted to 0.08.

U87C C113U: the self-cleavage is 0.

Regarding A92C U109C, the self-cleavage came to 0.

Regarding U87A U112A, the self-cleavage was found to be 0.07.

U85G C118U: the self-cleavage is 0.14.

Take U87A U102C: the self-cleavage stood at 0.08.

U85C A124U: the self-cleavage was 0.21.

For the variant U85C A124G, the self-cleavage was determined as 0.13.

On to U85C U108A, for which the self-cleavage stood at 0.28.

Consider G89A U100A, for which the self-cleavage stood at 0.04.

As for C90A U134A, the self-cleavage worked out at 0.04.

G88A U108C: the self-cleavage amounted to 0.05.

Take U87A A136U: the self-cleavage was 0.1.

For the variant U85C U134A, the self-cleavage stood at 0.14.

In the case of U85C U134G, the self-cleavage was determined as 0.14.

As for U85C U134C, the self-cleavage is 0.26.

For U85C G137A, the self-cleavage stood at 0.2.

G86A A121U: the self-cleavage came to 0.26.

Consider G89U A142U, for which the self-cleavage was found to be 0.04.

As to G88A, the self-cleavage stood at 0.04.

Take G88U: the self-cleavage worked out at 0.05.

As for G88C, the self-cleavage stood at 0.11.

For the variant G89U A92U, the self-cleavage came to 0.07.

As to U85G A138G, the self-cleavage was 0.22.

Take U85A U130C: the self-cleavage stood at 0.1.

With U85A U130A, the self-cleavage is 0.1.

Turning to U91C U100A, the self-cleavage was 0.15.

On to U85G C113A, for which the self-cleavage turned out to be 0.14.

In the case of U87A A124G, the self-cleavage worked out at 0.07.

With G86A A140U, the self-cleavage was determined as 0.09.

As for G86U A107G, the self-cleavage amounted to 0.02.

For U85C C90A, the self-cleavage was found to be 0.07.

In the case of U91C A141G, the self-cleavage is 0.92.

For the variant G89A U109C, the self-cleavage worked out at 0.04.

With U87G C118U, the self-cleavage came out at 0.17.

As for U87C G105A, the self-cleavage was 0.14.

In the case of U91C U119C, the self-cleavage was determined as 1.4.

As for U91C C110U, the self-cleavage turned out to be 0.66.

Regarding U91C U115A, the self-cleavage came out at 0.56.

Consider U91C U115C, for which the self-cleavage was determined as 0.83.

With U91C U115G, the self-cleavage was 0.69.

As for U85C G97U, the self-cleavage was 0.02.

For the variant U91C U96C, the self-cleavage amounted to 0.13.

With G86U U96G, the self-cleavage was 0.13.

Consider U87A U109C, for which the self-cleavage is 0.11.

With G86A A92G, the self-cleavage turned out to be 0.02.

Consider U85C U100A, for which the self-cleavage stood at 0.

U91C C128U: the self-cleavage was 1.

Take U85G A124G: the self-cleavage is 0.32.

For the variant G88A A129G, the self-cleavage amounted to 0.07.

As for U87C C145G, the self-cleavage is 0.32.

Take G89A A94G: the self-cleavage worked out at 0.07.

Regarding U91A A121G, the self-cleavage stood at 0.84.

With U85A C113U, the self-cleavage stood at 0.06.

Take U91A U104C: the self-cleavage was determined as 0.42.

A92G A117U: the self-cleavage came to 0.08.

With A92G A117G, the self-cleavage was found to be 0.

Regarding U87C G114U, the self-cleavage was 0.19.

On to U87C G114A, for which the self-cleavage is 0.23.

For the variant U85G G144A, the self-cleavage is 0.21.

For U91C A117U, the self-cleavage amounted to 0.92.

On to U91C A117G, for which the self-cleavage came out at 0.78.

For the variant U87C C98U, the self-cleavage was determined as 0.02.

With U87C C98A, the self-cleavage stood at 0.09.

Take U85C U119A: the self-cleavage came to 0.25.

Take U85C U119C: the self-cleavage was 0.28.

Regarding U87C U134A, the self-cleavage was found to be 0.18.

In the case of U85A U109G, the self-cleavage stood at 0.05.

Consider G88A U115C, for which the self-cleavage amounted to 0.06.

Regarding G89U U109A, the self-cleavage came out at 0.02.

Turning to U85A U134A, the self-cleavage amounted to 0.06.

As to U85A U134C, the self-cleavage is 0.13.

Regarding G88U A140G, the self-cleavage is 0.04.

For the variant U87C G126U, the self-cleavage came out at 0.3.

As to A92G A142G, the self-cleavage came out at 0.14.

On to U87A A129G, for which the self-cleavage was 0.11.

For U87G A117C, the self-cleavage amounted to 0.31.

For U91A U143G, the self-cleavage was 0.56.

G86A A124C: the self-cleavage is 0.03.

For G86A A124U, the self-cleavage was found to be 0.05.

U85C A121U: the self-cleavage is 0.25.

Turning to U85C A121G, the self-cleavage worked out at 0.25.

On to U85G G106A, for which the self-cleavage worked out at 0.29.

With C90G A121U, the self-cleavage stood at 0.02.

As for U87A U108A, the self-cleavage was found to be 0.06.

On to U87A U108C, for which the self-cleavage was found to be 0.11.

For U91C G106A, the self-cleavage is 0.95.

As to G86A U112C, the self-cleavage was found to be 0.08.

As to U85G A107G, the self-cleavage stood at 0.09.

For the variant U85G A107U, the self-cleavage was found to be 0.27.

As to U87G U143A, the self-cleavage came out at 0.22.

For U87G U143C, the self-cleavage is 0.18.

Turning to G88A U132C, the self-cleavage came to 0.09.

For U85C G127U, the self-cleavage turned out to be 0.14.

With U85C G127C, the self-cleavage was 0.24.

For the variant G88A A121U, the self-cleavage amounted to 0.04.

For G89A U119C, the self-cleavage came out at 0.06.
